Source: paper PMC3826434 (Biochemistry, 2013)

Biological target: the molecule itself
Experiment: native gel or EMSA

B1: CmlA, β-hydroxylase of the chloramphenicol biosynthetic pathway (wild type) (enzyme)
chain: MRYSLRQDIAVEPVIAGWYGWSYLLPPQTLARFVHNRFNRIVESYLDDPQVHAAAVRQRRMHGGPWIHAHEHRDAIEAWYRETAPRRERLDELFEAVRRLEEDILPRHHGECLDPVYQELPAALAGRVEVFYGRDNRTADYRFVEPLMYASEYYDESWQQVRFRPVTEDAREFALTTPMLEYGPEQLLVDVPLNSPLLDAVFRGGLTGTELDDLAARFGLDGERAARFASYFEPTPAASEAPAPASSSEEDVLEYVGHACVFARHRGTTFLVDPVLSYSGYPGGAENRFTFADLPERIDHLLITHNHQDHMLFETLLRIRHRVGRVLVPKSTNASLVDPGLGGILRRLGFTDVVEVDDLETLSCGSAEVVALPFLGEHGDLRIRSKTGWLIRFGERSVLFAADSTNISPTMYTKVAEVIGPVDTVFIGMESIGAAASWIYGPLYGEPLDRRTDQSRRLNGSNFPQAREIVDALEPDEVYVYAMGLEPWMGVVMAVDYDESHPAIVDSDLLVRHVQDKGGTAERLHLRRTLRL
  stoichiometry N: 2
